According to patent US7563583B2, “Heregulin variants” (Genentech, Inc., priority 1997, dated 2009):

Experiments:
ErbB-3-Ig [1] = target: T1, ErbB-3-Ig (Homo sapiens, UniProt P21860); test: Phage ELISA of phage-displayed HRG-β1 variants, binding to ErbB-3-Ig
T1 construct: expressed the extracellular domain (ECD) of the ErbB-2, ErbB-3, or ErbB-4 receptor fused to a human IgG constant domain; made in house; host or cells: HEK-293 cells, secreted, Protein A purified
Procedure: To produce phage displaying the domains, mutagenesis reaction mixtures were electrotransformed into XL1-Blue™ cells (Stratagene, Inc., La Jolla, Calif.), according to the manufacturer's protocol. The transformed cells were then infected with 10^14 plaque-forming units (pfu) M13K07 helper phage (Promega Corp., Madison, Wis.). Phage stocks (about 10^14 phagemid/mL) were prepared by precipitating culture broths from the cells after 18-24 hours (h) of growth with 20% PEG(2000)/2.5 M NaCl, according to the method of Sambrook and Maniatis, Molecular Cloning a Laboratory Manual Cold Spring Harbor Press 429 (1989). […]
Serial dilutions of soluble ErbB-2/3-Ig (competitor) and a concentration of phage predetermined to give 60% saturation (without competitor) were added to the wells in 100 μL binding buffer. […] The amount of phage binding was determined by assaying horseradish peroxidase activity using o-phenylenediamine dihydrochloride) substrate solution (Sigma Chemical Company, St. Louis, Mo.). EC50 values were calculated as the concentration of soluble ErbB-2/3-Ig required to compete half of the phage off the plate.
Alanine-substituted variants were generated by site-directed mutagenesis according to Kunkel et al., Methods Enzymol. […] The affinities of the alanine-substituted variants for ErbB-3-Ig and ErbB-4-Ig was determined by phage ELISA as described in Example 1. […]

ErbB-2/3-Ig = test: Inhibition of 125I-HRG binding by soluble HRG-β1 EGF variants; conditions: ErbB-2/3-Ig versus ErbB-3-Ig homodimer
Procedure: The affinities of the soluble variants for ErbB-Ig were determined by measuring inhibition of ^125I-HRG binding to ErbB-2/3, -3 and -4 receptor-Ig fusions, as previously described in Example 1.

[2] = system: ErbB-3 or ErbB-4 receptors; test: Alanine scan of the HRG-β1 EGF-like domain by phage ELISA (FIG. 2); assay type: binding; conditions: ratio of variant EC50 to wild-type EC50
Procedure: The X axis lists each amino acid that was changed to alanine and its position. […] The EC50 was calculated as the concentration of soluble receptor fusion required to displace 50% of the total amount of phage bound to immobilized receptor fusion. ErbB-3 binding results are shown with black bars, and ErbB-4 binding results are shown with white bars.
Alanine-substituted variants were generated by site-directed mutagenesis according to Kunkel et al., Methods Enzymol. 154:367-82 (1987) (hereinafter “Kunkel mutagenesis”), using uracil-containing single-stranded DNA template prepared from pHRG2-g3. pHRG2-g3, which is described in Example 1, expressed HRG-β1 177-244 fused to pIII 247. A series of oligonucleotides was used to generate a series of constructs that expressed a series of variants in which consecutive residues were mutated to alanine. Phage stocks were prepared from these constructs as described in Example 1, except that PEG(8000) was used to precipitate the phage. The affinities of the alanine-substituted variants for ErbB-3-Ig and ErbB-4-Ig was determined by phage ELISA as described in Example 1.

ErbB-4-Ig = target: T2, ErbB-4-Ig (Homo sapiens, UniProt Q15303); test: Inhibition of 125I-HRG-β1 177-244 binding by soluble Trx-variant fusions; conditions: soluble thioredoxin (Trx)-variant fusions; HRG-β1 = recombinant HRG-β1 177-244
T2 construct: expressed the extracellular domain (ECD) of the ErbB-2, ErbB-3, or ErbB-4 receptor fused to a human IgG constant domain; made in house; host or cells: HEK-293 cells, secreted, Protein A purified
T2 sequence (Q15303 with tags, fused parts or gaps): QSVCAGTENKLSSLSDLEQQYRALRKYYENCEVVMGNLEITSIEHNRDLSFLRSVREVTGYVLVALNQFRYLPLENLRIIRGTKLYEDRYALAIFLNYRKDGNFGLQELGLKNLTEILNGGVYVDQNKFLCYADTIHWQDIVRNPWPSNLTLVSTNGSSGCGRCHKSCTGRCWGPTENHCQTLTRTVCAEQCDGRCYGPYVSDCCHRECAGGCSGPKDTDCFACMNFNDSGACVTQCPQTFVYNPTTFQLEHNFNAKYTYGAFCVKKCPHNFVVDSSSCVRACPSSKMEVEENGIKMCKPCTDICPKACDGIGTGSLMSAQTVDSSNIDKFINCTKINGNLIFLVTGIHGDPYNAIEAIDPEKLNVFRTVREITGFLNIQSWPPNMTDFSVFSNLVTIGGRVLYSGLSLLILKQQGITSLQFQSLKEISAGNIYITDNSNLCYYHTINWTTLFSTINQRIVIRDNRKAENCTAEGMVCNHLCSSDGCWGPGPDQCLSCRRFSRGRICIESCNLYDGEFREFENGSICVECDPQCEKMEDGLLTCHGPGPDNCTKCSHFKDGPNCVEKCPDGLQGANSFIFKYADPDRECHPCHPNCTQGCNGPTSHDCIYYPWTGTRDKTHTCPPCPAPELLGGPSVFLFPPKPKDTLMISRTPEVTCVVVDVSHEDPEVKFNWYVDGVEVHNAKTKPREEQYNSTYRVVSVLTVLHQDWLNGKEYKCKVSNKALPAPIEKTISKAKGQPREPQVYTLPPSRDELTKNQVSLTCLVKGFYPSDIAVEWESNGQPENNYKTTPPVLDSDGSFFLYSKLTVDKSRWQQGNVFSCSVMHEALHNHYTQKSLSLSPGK
Procedure: (§1) The affinities of the Trx-variant fusions for ErbB receptor-Ig fusions were determined by measuring inhibition of ^125I-HRG-β1 177-244 binding to ErbB-3-Ig and ErbB-4-Ig. Receptor fusions were coated on plates (Nunc Maxisorp C™ break-apart strip wells, Inter Med, Denmark) via anti-human IgG, as described in Example 1 for phage ELISA. Binding assays were carried out with a constant amount of ^125I-HRG-β1 177-244 (100-300 pM) and varying concentrations (100 pM-4 μM) of unlabeled Trx-variant fusion. Following incubation for 1-3 h at room temperature, plates were washed, and the amount of bound ^125I-HRG-β1 177-244 in each well was counted on a gamma counter (Isodata, ICN Biomedic Systems, Huntsville, Ala.). For the ErbB-3 binding assays, the blocking buffer was TBST (0.025 M Tris-HCl [pH 7.5], 0.15 M NaCl, 0.02% Tween 20™) containing 1% BSA; the binding buffer was RPMI 1640™ cell culture media (Gibco-BRL, Gaithersburg, Md.) containing 2 mM glutamine, 100 U/mL penicillin, 100 μg/mL streptomycin, 10 mM HEPES buffer (pH 7.2), 0.2% BSA; and the wash buffer was TBST. For the ErbB-4 binding assays, PBS containing 1% BSA was used as the blocking and binding buffers, and the wash buffer was PBS containing 0.05% Tween 20™.

ErbB-3-Ig [3] = target: T1, ErbB-3-Ig; test: as above; conditions: soluble thioredoxin (Trx)-variant fusions; HRG-β1 = recombinant HRG-β1 177-244
Procedure: as §1

T1 sequence (P21860 with tags, fused parts or gaps): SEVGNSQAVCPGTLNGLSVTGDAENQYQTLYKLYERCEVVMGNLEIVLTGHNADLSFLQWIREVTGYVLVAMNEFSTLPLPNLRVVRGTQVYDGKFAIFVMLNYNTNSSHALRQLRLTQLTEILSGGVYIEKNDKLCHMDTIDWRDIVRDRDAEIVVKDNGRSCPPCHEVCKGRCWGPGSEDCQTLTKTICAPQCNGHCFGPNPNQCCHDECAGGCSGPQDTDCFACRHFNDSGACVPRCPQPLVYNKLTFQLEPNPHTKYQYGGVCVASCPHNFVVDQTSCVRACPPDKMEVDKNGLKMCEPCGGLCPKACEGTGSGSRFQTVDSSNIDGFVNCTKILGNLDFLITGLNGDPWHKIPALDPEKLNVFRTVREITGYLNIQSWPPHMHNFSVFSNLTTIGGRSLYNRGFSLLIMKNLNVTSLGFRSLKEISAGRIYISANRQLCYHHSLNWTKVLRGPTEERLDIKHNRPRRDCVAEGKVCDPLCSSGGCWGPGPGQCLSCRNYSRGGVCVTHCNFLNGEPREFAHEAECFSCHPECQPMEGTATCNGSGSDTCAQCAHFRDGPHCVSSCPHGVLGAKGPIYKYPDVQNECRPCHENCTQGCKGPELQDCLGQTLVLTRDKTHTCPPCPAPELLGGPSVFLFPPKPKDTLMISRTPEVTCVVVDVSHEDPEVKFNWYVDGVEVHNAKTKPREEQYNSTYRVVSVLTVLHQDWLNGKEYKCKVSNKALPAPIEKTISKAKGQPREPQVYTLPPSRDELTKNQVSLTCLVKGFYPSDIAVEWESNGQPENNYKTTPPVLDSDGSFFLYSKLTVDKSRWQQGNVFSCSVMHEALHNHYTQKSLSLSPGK

Q: With “B10: HRG-β1 EGF library B variant: A183D, E184K, K185S, E186R, K187E, T188G, M226I (SHLVKCDKSREGFCVNGGECFMVKDLSNPSRYLCKCPNEFTGDRCQNYVIAS; left off: large carriers; small tags and cut ends) [Variant B10]” as the molecule, how does the “increase in ErbB-3 receptor (ErbB-3-Ig) affinity over wild-type HRG-β1 EGF” value (ErbB-3-Ig [1]; phage ELISA) read?
A: Its value is “up to 26 fold”.

B1: HRG8: wild-type HRG-β1 177-228 (minimal EGF-like domain); on phage linked via (GGGS)3 to pIII 323, or soluble (protein)
chain: SHLVKCAEKEKTFCVNGGECFMVKDLSNPSRYLCKCPNEFTGDRCQNYVMASGGGSGGGSGGGSNSQMAQVGDGDNSPLMNNFRQYLPSLPQSVECRPFVFSAGKPYEFSIDCDKINLFRGVFAFLLYVATFMYVFSTFANILRNKES
Q: With B1 as the molecule, how does the “higher affinity for the 2/3-heterodimer versus the 3/3 homodimer” value (ErbB-2/3-Ig) read?
A: Its value is “approximately 100 fold”.

B2: HRG63: HRG-β1 EGF control variant in which HRG-β1 202-204 of HRG8 are deleted (protein)
chain: SHLVKCAEKEKTFCVNGGECFMVKDPSRYLCKCPNEFTGDRCQNYVMASGGGSGGGSGGGSNSQMAQVGDGDNSPLMNNFRQYLPSLPQSVECRPFVFSAGKPYEFSIDCDKINLFRGVFAFLLYVATFMYVFSTFANILRNKES
Q: With B2 as the molecule, how does the “Phage ErbB-3 EC50 (wt)/EC50 (mut)” value (ErbB-3-Ig [1]; relative to wild-type HRG-β1 EGF-phage in the same assay run, above 1 = higher affinity, ± SD of 2-4 duplicate runs) read?
A: The value was 1.1 ± 0.8.

B3: T188: HRG-β1 variant with T188 mutated to alanine (protein, UniProt Q02297 1-640, looked up, variant T188A)
chain: MSERKEGRGKGKGKKKERGSGKKPESAAGSQSPALPPRLKEMKSQESAAGSKLVLRCETSSEYSSLRFKWFKNGNELNRKNKPQNIKIQKKPGKSELRINKASLADSGEYMCKVISKLGNDSASANITIVESNEIITGMPASTEGAYVSSESPIRISVSTEGANTSSSTSTSTTGTSHLVKCAEKEKAFCVNGGECFMVKDLSNPSRYLCKCQPGFTGARCTENVPMKVQNQEKAEELYQKRVLTITGICIALLVVGIMCVVAYCKTKKQRKKLHDRLRQSLRSERNNMMNIANGPHHPNPPPENVQLVNQYVSKNVISSEHIVEREAETSFSTSHYTSTAHHSTTVTQTPSHSWSNGHTESILSESHSVIVMSSVENSRHSSPTGGPRGRLNGTGGPRECNSFLRHARETPDSYRDSPHSERYVSAMTTPARMSPVDFHTPSSPKSPPSEMSPPVSSMTVSMPSMAVSPFMEEERPLLLVTPPRLREKKFDHHPQQFSSFHHNPAHDSNSLPASPLRIVEDEEYETTQEYEPAQEPVKKLANSRRAKRTKPNGHIANRLEVDSNTSSQSSNSESETEDERVGEDTPFLGIQNPLAASLEATPAFRLADSRTNPAGRFSTQEEIQARLSSVIANQDPIAV
Q: For B3, which “effect of substitution with alanine on affinity for the ErbB-3 or ErbB-4 receptors” value [2] is on record?
A: The value was “two and five”.

B4: R220: HRG-β1 variant with R220 mutated to alanine (protein)
chain: SHLVKCAEKEKTFCVNGGECFMVKDLSNPSRYLCKCPNEFTGDACQNYVMASFYKHLGIEFMEAEELY
modifications: left off: large carriers; small tags and cut ends
notes: HRG-β1 variant with R220 mutated to alanine
Q: B4 was tested. Which “Sol EC50, binding to the ErbB-4 receptor” value (ErbB-4-Ig) did it give?
A: The value was “no binding”.

Q: And the “Sol EC50, binding to the ErbB-3 receptor” value (ErbB-3-Ig [3])?
A: The value was “no binding”.
